Target: ASC (UniProt Q9ULZ3)
Assay: EMSA
Conditions: EMSA: 100 mM Tris, 500 mM NaCl, 10 mM DTT, pH 7, 15°C 30 min; 3-5 μg DNA, 0.2-0.65 μg recombinant protein or 5 μg nuclear extract; 6% native PAGE

Sequence of ASC (Q9ULZ3 whole entry): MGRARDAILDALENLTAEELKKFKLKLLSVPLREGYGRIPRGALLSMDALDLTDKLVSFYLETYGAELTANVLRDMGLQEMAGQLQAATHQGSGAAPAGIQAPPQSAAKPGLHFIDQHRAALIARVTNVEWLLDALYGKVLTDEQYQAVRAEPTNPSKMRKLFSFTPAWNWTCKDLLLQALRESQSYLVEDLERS

## ATTTATATAGCTTCTCAGCCTCGAATGTGGAAATAGGTGACTCATTTGAGTGTTTTCTTTCTTTTTAGAGTCTACAGAACTTTGAAAGTATGTGTTATTTTTCATTAACTAAAACGAGGAAGTATTACATCGTTATTGGCAGGAAGCACACAATGTATTTGTCTTTCAAAGGATTTTTTTTTCTGTCTGCTGCATAAATTGACTCCATGAGAAACCTCATTTTTTTGCCAAAGTCAAATGACTGCTCTCATAGGTATCA (double strand) [MMP7 promoter P1]
  binding: binds

Source: publication PMC5061333
